Reference: patent US20100211325A1

Columns and labels:
[1] = target: Laminin 511/521 (LM511/521) (UniProt O15230); test: ELISA, 0.05 nM Lu gpFc captured by anti-human Fc, 5 nM LM511/521, anti-laminin detection
[2] = target: Laminin 511/521 (LM511/521) (UniProt O15230); test: SPR (Biacore X), Lu gpFc captured on protein A chip (40 RU), 100 µl injection of 10 nM LM511/521, total change in RU
[3] = target: Laminin 511/521 (LM511/521) (UniProt O15230); test: ELISA in buffers of pH 4.0 to 11.0 and 1M NaCl, negative control Fc fusion protein captured, LM511/521 added

Muc18 Fc fusion protein (negative control), sequence (P43121 24-559): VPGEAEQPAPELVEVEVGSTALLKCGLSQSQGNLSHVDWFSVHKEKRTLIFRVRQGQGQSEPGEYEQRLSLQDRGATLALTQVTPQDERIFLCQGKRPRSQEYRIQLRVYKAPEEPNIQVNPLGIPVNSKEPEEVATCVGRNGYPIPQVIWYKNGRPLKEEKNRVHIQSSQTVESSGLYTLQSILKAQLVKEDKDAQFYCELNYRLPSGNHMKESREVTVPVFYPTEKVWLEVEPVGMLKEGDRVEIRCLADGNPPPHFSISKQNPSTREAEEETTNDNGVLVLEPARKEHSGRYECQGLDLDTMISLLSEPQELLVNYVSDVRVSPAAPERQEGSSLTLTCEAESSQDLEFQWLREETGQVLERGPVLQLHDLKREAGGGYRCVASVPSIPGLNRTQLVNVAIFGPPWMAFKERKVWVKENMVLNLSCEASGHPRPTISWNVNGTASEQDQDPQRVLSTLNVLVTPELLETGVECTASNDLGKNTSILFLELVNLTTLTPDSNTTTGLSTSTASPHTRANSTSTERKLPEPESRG

ELISA % of native Lu gpFc [1]	Biacore Δ RUs [2]	OD450 (background binding) [3]	Substance
90.7%	85 RU	–	Lu gpFc E234A (from UniProt P50895 32-547) (Fc fusion)
63.2%	73.8 RU	–	Lu gpFc E269A (from UniProt P50895 32-547) (Fc fusion)
73%	99.1 RU	–	Lu gpFc E280A (from UniProt P50895 32-547) (Fc fusion)
–	–	0.18 to 0.64 OD450	Muc18 Fc fusion protein (negative control) (from UniProt P43121 24-559)
97.3%	100 RU	–	Lu gpFc E281A (from UniProt P50895 32-547) (Fc fusion)
26.4%	38.5 RU	–	Lu gpFc D310A (from UniProt P50895 32-547) (Fc fusion)
20.7%	4.4 RU	–	Lu gpFc D312A (from UniProt P50895 32-547) (Fc fusion)
40.4%	44.9 RU	–	Lu gpFc E309A (from UniProt P50895 32-547) (Fc fusion)
93.2%	116 RU	–	Lu gpFc D315A (from UniProt P50895 32-547) (Fc fusion)
49%	59.7 RU	–	Lu gpFc D198A/D199A (from UniProt P50895 32-547) (Fc fusion)
75%	79.8 RU	–	Lu gpFc D316A (from UniProt P50895 32-547) (Fc fusion)
